This data set concerns T1, His-NrtR (Pseudomonas aeruginosa PAK), ORF:d24b93ef.
T1 sequence: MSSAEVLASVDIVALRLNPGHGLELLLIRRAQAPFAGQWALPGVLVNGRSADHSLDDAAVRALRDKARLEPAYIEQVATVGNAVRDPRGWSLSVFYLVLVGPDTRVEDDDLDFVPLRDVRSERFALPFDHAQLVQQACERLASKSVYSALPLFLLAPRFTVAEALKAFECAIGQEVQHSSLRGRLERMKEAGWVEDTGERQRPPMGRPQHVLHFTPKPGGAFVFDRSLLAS
The experiment in a line: EMSA. Particulars: 10 mM Tris, 1 mM DTT, pH 7.5, […].

As to “GCTGGGAAGGCTCGCGATGATGAGGGGACTGGCCACTGTAGCGGGCCCGGCGCAGATCATCTTGACGCACGGCAAGCTCCCGGCGGCTGGGTGTTGCCGTCGGTCCGGCGAGCGGAACTATTACAGCGTGTAAGCCAAGGCTTACAAACGGCGGTGGTTTTGGCTGCTTTCTCCCCCTCGCGGAGATGCGTAATCTTCAAACCGTCAGGACATTGCGCAGGAAGCGCCAAAGACAATACGG (double strand) [rsmY promoter fragment]”, the binding result was “binds”.

Consider “CAGGAGTGATATTAGCGATTCCCAGTGCTCCCGCAACCTGCCAGAAAACCCAGCGAAGCTTCTTCGGCAGCCATTTTAGAAAAATATATTCCTTTAATTTCAATAAGTTACTTAAATTCACCGAGCGTTTTTGGCAAACCTCCCGGGCATTTATCTACTTAGGCTCACACGCCGTGTAAGTTAATGCTTACAAGAGCAGACACAAAAAACCCGGCGAACGCCGGGTCTTCAGTGGGTCTAAGGTTTTCCG (double strand) [rsmZ promoter fragment]”, for which the binding result is on record as “binds”. Then “CCGCGTTGCCGACCGTGGCCACCTGCTCGATGTAGGCCGGCTCCAGCCGCGCCTTGTCGCGCAGGGCGCGCACCGCCGCGTCGTCGAGGCTGTGGTCGGCGCTGCGGCCGTTGACCAGCACGCCGGGCAAGGCCCACTGGCCGGCGAAAGGCGCCTGGGCGCGGCGGATCAGCAACA (double strand) [nrtR coding fragment]”, with “no binding”; and “AGAAAATACCTTCCACTGCGAAATTTTGTAGTACAAGTGCTTGACGACTTATTTCACGTGATGAATTATGTACCCACATTCAGCCCCAACCCGTCAAGCGGAGGCTTCC (double strand) [nadD2 promoter fragment]”, with “binds”.

Source of the values: article PMC8865458.
